According to US20160215020A1 (published 2016):

Biological target: complement component C3 (human) (human, UniProt P01024 23-1663)
Assay: cell-based or functional assay

B1: (CA28-AEEAc)8-PEG40k (peptide)
peptide: ICVWQDWGAHRCTK
modifications: N-terminal acetyl; (1Me)Trp at position 4; disulfide Cys2-Cys12; AEEAc between Thr13 and Lys; C-terminal amide; Lys side chain coupled to an arm of an eight-arm 40 kD PEG (NOF SUNBRIGHT HGEO-400GS)
IC50, classical complement inhibition assay (C3b deposition ELISA), as a function of CA28 moiety concentration: 1.93 µM
